Reference: paper PMC5538626 (EMBO Reports, 2017)
Ends that are not written are not given here.

What was measured:
Conditions in all cases: both partners purified
[1] = target: 6xHis‐tagged LC3B (human, UniProt Q9GZQ8 1-120); experiment: ELISA; called peptide array: biotinylated peptides immobilised on streptavidin-coated 96-well plates; 1 μM His6-mATG8 in PBS, 0.1% Tween-20, 1% BSA, 1 h, 8°C; anti-His-HRP, TMB, absorbance at 450 nm
[2] = target: T1, 6xHis‐tagged LC3A (human, UniProt Q9H492 1-121); experiment: as above
T1 construct: LC3A (MAP1LC3A), human; also called His6‐LC3A; MAP1LC3A; source: E. coli, isolated

[3] = target: T2, 6xHis‐tagged GABARAP‐L1 (human, UniProt Q9H0R8 1-117); experiment: as above
T2 construct: GABARAP-L1, human; also called His6‐GABARAP‐L1; source: E. coli, isolated
T2 sequence (Q9H0R8 whole entry, looked up): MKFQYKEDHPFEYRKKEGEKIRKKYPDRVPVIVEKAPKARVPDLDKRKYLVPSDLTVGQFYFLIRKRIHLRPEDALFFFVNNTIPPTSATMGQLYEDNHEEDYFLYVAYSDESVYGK

[4] = target: T3, 6xHis‐tagged LC3C (human, UniProt Q9BXW4 1-126); experiment: as above
T3 construct: LC3C, human; also called His6‐LC3C; source: E. coli, isolated
T3 sequence (Q9BXW4 1-126): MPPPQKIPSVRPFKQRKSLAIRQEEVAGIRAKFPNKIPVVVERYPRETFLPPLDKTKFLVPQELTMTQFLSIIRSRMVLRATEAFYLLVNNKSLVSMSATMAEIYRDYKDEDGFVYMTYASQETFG

[5] = target: T4, 6xHis‐tagged GABARAP‐L2 (human, UniProt P60520 1-117); experiment: as above
T4 construct: GABARAP-L2/GATE-16, human; also called His6‐GABARAP‐L2; GATE‐16; source: E. coli, isolated
T4 sequence (P60520 whole entry): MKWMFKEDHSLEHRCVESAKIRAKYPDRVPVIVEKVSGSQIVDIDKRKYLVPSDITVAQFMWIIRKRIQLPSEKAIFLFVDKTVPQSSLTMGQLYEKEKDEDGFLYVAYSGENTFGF

[6] = target: T5, 6xHis‐tagged GABARAP (human, UniProt O95166 1-117); experiment: as above
T5 construct: GABARAP, human; also called His6‐GABARAP; source: E. coli, isolated
T5 sequence (O95166 whole entry): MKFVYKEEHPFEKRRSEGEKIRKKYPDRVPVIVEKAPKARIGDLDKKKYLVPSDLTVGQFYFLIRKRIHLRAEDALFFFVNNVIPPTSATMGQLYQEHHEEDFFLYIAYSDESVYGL

[7] = target: T6, GABARAP (for ITC and NMR) (human, UniProt O95166 1-117); experiment: ITC; peptide 0.4 mM titrated into 0.020 mM LC3/GABARAP protein in 26 steps, 25°C; 50 mM Na2HPO4, 100 mM NaCl, pH 7.0; one-site model
T6 construct: GABARAP, human; source: E. coli NEB T7 Express, purified
T6 sequence (O95166 whole entry): as above

[8] = target: LC3B K30R (human, UniProt Q9GZQ8 1-120, K30R); experiment: ITC; peptide at 0.4 mM titrated into 0.020 mM LC3B or GABARAP protein in 26 steps, 25 C, VP-ITC, one-site model; 50 mM Na2HPO4, 100 mM NaCl, pH 7.0
[9] = target: T7, GABARAP R28K (human, UniProt O95166 1-117, R28K); experiment: as above
T7 construct: GABARAP, human, with R28K; also called GABARAP R28K mutant
T7 sequence (O95166 whole entry R28K): as the sequence (O95166 whole entry) above, with R28K counted along it

[10] = target: T8, GABARAP‐L1 (for ITC and NMR) (human, UniProt Q9H0R8 1-117); experiment: ITC; peptide 0.4 mM titrated into 0.020 mM LC3/GABARAP protein in 26 steps, 25°C; 50 mM Na2HPO4, 100 mM NaCl, pH 7.0; one-site model
T8 construct: GABARAP-L1, human; 15N-labelled for NMR; source: E. coli NEB T7 Express, purified
T8 sequence (Q9H0R8 whole entry): as the sequence (Q9H0R8 whole entry, looked up) above

[11] = target: T9, GABARAP‐L2 (for ITC and NMR) (human, UniProt P60520 1-117); experiment: as above
T9 construct: GABARAP-L2/GATE-16, human; 15N-labelled for NMR; also called GATE‐16; source: E. coli NEB T7 Express, purified
T9 sequence (P60520 whole entry): as the sequence (P60520 whole entry) above

[12] = target: T10, LC3C (for ITC) (human, UniProt Q9BXW4 1-126); experiment: as above
T10 construct: LC3C, human; source: E. coli NEB T7 Express, purified
T10 sequence (Q9BXW4 1-126): as the sequence (Q9BXW4 1-126) above

[13] = target: LC3B (for ITC and NMR) (human, UniProt Q9GZQ8 1-120); experiment: as above
[14] = target: T11, LC3A (for ITC and NMR) (human, UniProt Q9H492 1-121); experiment: as above
T11 construct: LC3A, human; 15N-labelled for NMR; also called MAP1LC3A; source: E. coli NEB T7 Express, purified

B1: PLEKHM1‐LIR N637C peptide (biotinylated 9-mer) (peptide, UniProt Q9Y4G2 632-640, looked up)
peptide: EDEWVCVQY
modifications: also: biotinylated
notes: PLEKHM1 LIR; source: bought: JPT (biotinylated peptide)
[1]
  binding result: binds
[2]
  binding result: binds
[3]
  binding result: binds
[4]
  binding result: binds
[5]
  binding result: binds
[6]
  binding result: binds

B2: PLEKHM1‐LIR N637I peptide (biotinylated 9-mer) (peptide, UniProt Q9Y4G2 632-640, looked up)
peptide: EDEWVIVQY
modifications: also: biotinylated
notes: as for B1
[1]
  binding result: binds
[2]
  binding result: binds
[3]
  binding result: binds
[4]
  binding result: binds
[5]
  binding result: binds
[6]
  binding result: binds

B3: PLEKHM1‐LIR WT peptide (EDEWVNVQY), biotinylated (peptide)
peptide: EDEWVNVQY
modifications: also: biotinylated
notes: PLEKHM1 LIR; also called PLEKHM1 LIR 632–640; source: bought: JPT (biotinylated peptide)
[1]
  binding result: binds
[2]
  binding result: binds
[3]
  binding result: binds
[4]
  binding result: binds
[5]
  binding result: binds
[6]
  binding result: binds

B4: PLEKHM1‐LIR V638I peptide (biotinylated 9-mer) (peptide, UniProt Q9Y4G2 632-640, looked up)
peptide: EDEWVNIQY
modifications: also: biotinylated
notes: as for B1
[1]
  binding result: binds
[2]
  binding result: binds
[3]
  binding result: binds
[4]
  binding result: binds
[5]
  binding result: binds
[6]
  binding result: binds

B5: PLEKHM1‐LIR V636G peptide (ITC) (peptide)
chain: PQQEDEWGNVQYPD
modifications: limits taken from the WT ITC peptide (P629-D642); N-terminal GAMG cloning remnant, printed only for WT, left out
[7]
  Ka: 20000 M⁻¹
  Kd: 52 µM
  dH: -7.5 ± 0.1 kcal/mol

B6: PLEKHM1‐LIR N637F peptide (biotinylated 9-mer) (peptide, UniProt Q9Y4G2 632-640, looked up)
peptide: EDEWVFVQY
modifications: also: biotinylated
notes: as for B1
[1]
  binding result: binds
[2]
  binding result: binds
[3]
  binding result: binds
[4]
  binding result: binds
[5]
  binding result: binds
[6]
  binding result: binds

B7: PLEKHM1‐LIR N637L peptide (biotinylated 9-mer) (peptide, UniProt Q9Y4G2 632-640, looked up)
peptide: EDEWVLVQY
modifications: also: biotinylated
notes: as for B1
[1]
  binding result: binds
[2]
  binding result: binds
[3]
  binding result: binds
[4]
  binding result: binds
[5]
  binding result: binds
[6]
  binding result: binds

B8: PLEKHM1‐LIR W635F peptide (biotinylated 9-mer) (peptide, UniProt Q9Y4G2 632-640, looked up)
peptide: EDEFVNVQY
modifications: also: biotinylated
notes: as for B1
[1]
  binding result: binds
[2]
  binding result: binds
[3]
  binding result: binds
[4]
  binding result: binds
[5]
  binding result: binds
[6]
  binding result: binds

B9: PLEKHM1‐LIR V638L peptide (biotinylated 9-mer) (peptide, UniProt Q9Y4G2 632-640, looked up)
peptide: EDEWVNLQY
modifications: also: biotinylated
notes: as for B1
[1]
  binding result: binds
[2]
  binding result: binds
[3]
  binding result: binds
[4]
  binding result: binds
[5]
  binding result: binds
[6]
  binding result: binds

B10: PLEKHM1‐LIR N637W peptide (biotinylated 9-mer) (peptide, UniProt Q9Y4G2 632-640, looked up)
peptide: EDEWVWVQY
modifications: also: biotinylated
notes: as for B1
[1]
  binding result: binds
[2]
  binding result: binds
[3]
  binding result: binds
[4]
  binding result: binds
[5]
  binding result: binds
[6]
  binding result: binds

B11: PLEKHM1‐LIR W635A peptide (ITC) (peptide)
chain: PQQEDEAVNVQYPD
modifications: limits taken from the WT ITC peptide (P629-D642); N-terminal GAMG cloning remnant, printed only for WT, left out
[7]
  Ka: 10000 M⁻¹
  Kd: > 100 µM
  dH: -1.1 ± 0.1 kcal/mol

B12: PLEKHM1-LIR peptide (GAMG-P629QQEDEWVNVQYPD642) (peptide)
peptide: GAMGPQQEDEWVNVQYPD
notes: cloning artefact left after TEV cleavage; PLEKHM1, LIR region, residues 629-642; Used non-labelled in ITC and in the LC3C co-crystal, 15N-labelled in the NMR titrations with non-labelled proteins; The Appendix (D1:p2) calls the ITC peptide 'synthetic', the methods describe the recombinant preparation; also called PLEKHM1-LIR WT; PLEKHM1 629-642; source: E. coli NEB T7, expressed as …
[8]
  Ka: 190000 M⁻¹
  Kd: 5.26 µM
  stoichiometry N: 1.11 ± 0.02
[9]
  Ka: 1.9e+06 M⁻¹
  Kd: 0.54 µM
  stoichiometry N: 1.05 ± 0.01

B13: PLEKHM1‐LIR W635Y peptide (biotinylated 9-mer) (peptide, UniProt Q9Y4G2 632-640, looked up)
peptide: EDEYVNVQY
modifications: also: biotinylated
notes: as for B1
[1]
  binding result: binds
[2]
  binding result: binds
[3]
  binding result: binds
[4]
  binding result: binds
[5]
  binding result: binds
[6]
  binding result: binds

B14: PLEKHM1‐LIR N637Y peptide (biotinylated 9-mer) (peptide, UniProt Q9Y4G2 632-640, looked up)
peptide: EDEWVYVQY
modifications: also: biotinylated
notes: as for B1
[1]
  binding result: binds
[2]
  binding result: binds
[3]
  binding result: binds
[4]
  binding result: binds
[5]
  binding result: binds
[6]
  binding result: binds

B15: PLEKHM1‐LIR V636C peptide (biotinylated 9-mer) (peptide, UniProt Q9Y4G2 632-640, looked up)
peptide: EDEWCNVQY
modifications: also: biotinylated
notes: as for B1
[1]
  binding result: binds
[2]
  binding result: binds
[3]
  binding result: binds
[4]
  binding result: binds
[5]
  binding result: binds
[6]
  binding result: binds

B16: PLEKHM1‐LIR N637V peptide (biotinylated 9-mer) (peptide, UniProt Q9Y4G2 632-640, looked up)
peptide: EDEWVVVQY
modifications: also: biotinylated
notes: as for B1
[1]
  binding result: binds
[2]
  binding result: binds
[3]
  binding result: binds
[4]
  binding result: binds
[5]
  binding result: binds
[6]
  binding result: binds

B17: PLEKHM1‐LIR peptide (GAMG‐P^629QQEDEWVNVQYPD^642) (peptide)
peptide: GAMGPQQEDEWVNVQYPD
notes: cloning artefact left after TEV cleavage; PLEKHM1 LIR, residues 629-642; 13C,15N- or 15N-labelled for some NMR experiments; also called PLEKHM1‐LIR WT; source: E. coli NEB T7, as Ub63 fusion, TEV-cleaved, purified (Ni-NTA, reverse Ni-NTA, gel filtration)
[10]
  Ka: 1.3e+06 M⁻¹
  Kd: 0.77 µM
  dH: -7.8 ± 0.1 kcal/mol
  stoichiometry N: 1 ± 0.01
[11]
  Ka: 1.07e+06 M⁻¹
  Kd: 0.93 µM
  dH: -6.1 ± 0.1 kcal/mol
  stoichiometry N: 1.05 ± 0.01
[7]
  Ka: 1.8e+06 M⁻¹
  Kd: 0.55 µM
  dH: -10.6 ± 0.1 kcal/mol
  stoichiometry N: 1 ± 0.01
[12]
  Ka: 290000 M⁻¹
  Kd: 3.45 µM
  dH: -8.3 ± 0.2 kcal/mol
  stoichiometry N: 0.99 ± 0.02
[13]
  Ka: 160000 M⁻¹
  Kd: 6.33 µM
  dH: -5.8 ± 0.2 kcal/mol
  stoichiometry N: 1.06 ± 0.01
[14]
  Ka: 240000 M⁻¹
  Kd: 4.22 µM
  dH: -7 ± 0.2 kcal/mol
  stoichiometry N: 0.98 ± 0.02
